B1: HEEH_KT_rd6_3546 (parent)
chain: SEEDKEREHWERLNRDFELRVLDTTFIAHHAEEVIKLLRWLEK

Variants of: B1
Experiment: folding stability dG (cDNA display proteolysis); higher = more stable
Details: PBS, room temperature

Folding stability dG [kcal/mol], by site and new letter:
E18: D 1.42 | M 2.15 | W 2.88 | K 1.62 | F 2.66 | A 1.79 | T 2.19 | R 1.87 | G 1.36 | I 2.34 | P 1.52 | V 2.17 | Q 1.72 | Y 2.4 | S 1.83 | L 2.33 | N 1.5 | H 1.79
T25: P 0.992 | K 1.16 | V 1.61 | I 1.7 | A 1.46 | S 1.52 | F 2.35 | M 1.36 | D 1.2 | L 2.18 | Y 1.65 | G 0.905 | H 1.29 | E 1.31 | N 1.26 | W 2.16 | R 1.41 | C 1.75 | Q 0.911
A28: N 0.915 | T 1.2 | S 1.15 | V 1.51 | Y 1.64 | D 0.777 | H 0.802 | L 1.99 | P 0.699 | W 2.14 | K 1.29 | R 1.48 | F 1.94 | Q 0.99 | I 1.82 | E 0.888 | M 1.84 | G 1.01 | C 2.23
H29: D 1.05 | R 1.68 | L 1.59 | Y 1.94 | V 1.61 | C 1.85 | T 1.35 | F 2.21 | S 1.59 | M 1.98 | P 0.857 | K 1.77 | W 2.01 | Q 1.23 | A 1.49 | I 2.5 | E 1.45 | G 1.17 | N 1.3
L19: T 0.795 | Y 1.14 | R 1.21 | K 0.521 | M 0.996 | W 1.49 | I 1.39 | A 0.896 | C 2.03 | S 0.796 | F 1.42 | D 0.732 | G 0.617 | E 0.795 | V 1.05 | P 0.862 | N 0.808 | H 0.971 | Q 0.821
D23: K 1.6 | G 1.64 | F 3.18 | H 2.01 | S 1.94 | V 3 | E 1.29 | I 3.03 | P 1.35 | N 1.45 | L 2.86 | Y 2.92 | T 2.27 | M 2.76 | A 2.35 | R 1.87 | W 2.85 | Q 1.64
R15: Q 1.08 | P 1.11 | H 1.42 | T 1.4 | I 2.41 | N 1.26 | W 2.45 | A 1.55 | M 1.75 | S 1.25 | V 2.08 | L 2.07 | D 1.22 | E 1.23 | G 1.29 | K 1.25 | F 2.37 | C 2.36 | Y 1.84
F17: L 1.14 | V 0.83 | N 0.718 | K 0.798 | S 0.873 | H 0.86 | A 0.719 | M 1.01 | Y 1.31 | W 1.55 | I 1.1 | R 0.912 | T 0.782 | G 0.579 | Q 0.444 | E 0.738 | D 0.606 | P 0.774
L22: V 1.18 | R 1.07 | W 1.35 | S 0.925 | T 0.948 | N 1.06 | I 1.53 | M 1.3 | P 0.989 | K 0.899 | F 1.42 | E 0.622 | G 1.48 | Y 1.67 | D 0.869 | H 0.824 | A 1.06 | Q 0.891
F26: V 0.759 | K 0.504 | L 0.925 | G 0.568 | S 0.703 | W 1.7 | H 0.83 | R 0.974 | N 0.663 | E 0.588 | I 0.875 | T 0.642 | A 0.696 | Y 1.04 | M 0.674 | P 0.393 | D 0.665 | Q 0.576
R20: P 0.684 | L 1.93 | A 1.04 | D 1.18 | K 1.36 | E 0.819 | G 1.29 | F 2.21 | V 1.68 | H 1.39 | C 2.37 | W 2.38 | Q 1.05 | N 1.23 | T 1.4 | M 1.63 | I 1.99 | S 1.35 | Y 2.39
V21: I 1.84 | F 1.72 | M 1.41 | R 1.41 | H 1.22 | T 1.27 | L 1.85 | E 1.06 | G 1.49 | P 0.85 | W 1.95 | A 1.33 | D 1.09 | Q 1.3 | N 1.23 | Y 1.5 | K 1.03 | S 1.16
N14: I 2.2 | T 1.8 | Q 1.67 | G 1.55 | R 2.11 | H 1.58 | K 1.72 | V 2.21 | L 2.39 | W 2.69 | S 1.96 | M 2.22 | Y 2.2 | P 1.8
E32: D 1.23 | G 1.2 | F 2.21 | A 1.93 | C 1.31
T24: P 1.22 | I 2.24 | V 2.13 | R 1.25 | H 1.13 | A 1.41 | M 1.82 | Q 1.02 | F 2.01 | W 2.13 | K 1.07 | Y 1.79 | S 1.06 | G 0.995 | L 2.19 | D 0.925 | E 0.926 | N 1.28
H30: A 2.04 | L 2.38 | S 1.23 | V 2.38 | K 1.13 | Q 1.06 | C 1.6 | R 1.07 | D 0.85 | N 1.09 | I 2.09 | M 2.34 | W 2.69 | Y 2.05 | T 1.72 | P 0.902 | F 2.3 | G 1.44 | E 0.893
I27: H 0.648 | M 1.12 | S 0.654 | W 1.88 | C 2.33 | P 0.57 | N 0.776 | V 0.996 | R 0.466 | L 1.37 | D 0.608 | T 0.562 | Y 1.25 | G 0.669 | A 0.784 | K 0.613 | Q 0.497 | F 1.58 | E 0.508
D16: M 1.73 | A 1.81 | L 2.02 | H 1.93 | I 1.98 | V 2.04 | W 2.27 | P 1.94 | T 2.31 | F 1.96 | N 1.59 | E 1.43 | S 1.57 | G 1.47 | Y 2.13 | R 1.76 | K 1.38 | Q 1.6
A31: R 1.07 | Y 1.61 | P 0.618 | I 2.19 | D 0.6 | N 0.698 | V 2.1 | H 0.66 | T 1.33 | Q 0.833 | W 2.28 | E 0.663 | G 0.934 | S 0.872 | C 2.24 | F 1.96 | M 1.79 | L 1.94 | K 1.09

— the MegaScale stability set (Tsuboyama et al. 2023)
